Among the data in US20170102390A1 are Carrier particles per cancer cell (carrier particles per cancer cell) values, retold here.

For assay [1], the target named is CK8/18 Ab (mouse antibody detected by the secondary anti-mouse antibody). Description: microscopy count on SKBR3 cells; 80 uL anti-mouse IgG-biotin, 7.5 uL Mag-Strept, 7.5 uL Mag-anti FITC.
The target is the same in assay [2]. Nature of the assay: microscopy count on SKBR3 cells; 80 uL anti-mouse IgG-biotin, 7.5 uL Mag-Strept, 0 uL Mag-anti FITC.

For “Secondary antibody-biotin = goat anti-mouse IgG biotin (whole molecule)-Biotin”, the Carrier particles per cancer cell (carrier particles per cancer cell) is 1110 in assay [1] and 133 in assay [2].
